In US20050220796A1:

What was measured:
[1] = target: DNA-dependent protein kinase catalytic subunit (DNA-PKcs) (human) (UniProt P78527); test: cell-based or functional assay
[2] = target: DNA-dependent protein kinase catalytic subunit (DNA-PKcs) (human) (UniProt P78527); test: SPR (Biacore X), scFv amine coupled to a CM-5 chip, purified DNA-PKcs as analyte, 25 C

Sequence of UniProt P78527 (P78527 whole entry): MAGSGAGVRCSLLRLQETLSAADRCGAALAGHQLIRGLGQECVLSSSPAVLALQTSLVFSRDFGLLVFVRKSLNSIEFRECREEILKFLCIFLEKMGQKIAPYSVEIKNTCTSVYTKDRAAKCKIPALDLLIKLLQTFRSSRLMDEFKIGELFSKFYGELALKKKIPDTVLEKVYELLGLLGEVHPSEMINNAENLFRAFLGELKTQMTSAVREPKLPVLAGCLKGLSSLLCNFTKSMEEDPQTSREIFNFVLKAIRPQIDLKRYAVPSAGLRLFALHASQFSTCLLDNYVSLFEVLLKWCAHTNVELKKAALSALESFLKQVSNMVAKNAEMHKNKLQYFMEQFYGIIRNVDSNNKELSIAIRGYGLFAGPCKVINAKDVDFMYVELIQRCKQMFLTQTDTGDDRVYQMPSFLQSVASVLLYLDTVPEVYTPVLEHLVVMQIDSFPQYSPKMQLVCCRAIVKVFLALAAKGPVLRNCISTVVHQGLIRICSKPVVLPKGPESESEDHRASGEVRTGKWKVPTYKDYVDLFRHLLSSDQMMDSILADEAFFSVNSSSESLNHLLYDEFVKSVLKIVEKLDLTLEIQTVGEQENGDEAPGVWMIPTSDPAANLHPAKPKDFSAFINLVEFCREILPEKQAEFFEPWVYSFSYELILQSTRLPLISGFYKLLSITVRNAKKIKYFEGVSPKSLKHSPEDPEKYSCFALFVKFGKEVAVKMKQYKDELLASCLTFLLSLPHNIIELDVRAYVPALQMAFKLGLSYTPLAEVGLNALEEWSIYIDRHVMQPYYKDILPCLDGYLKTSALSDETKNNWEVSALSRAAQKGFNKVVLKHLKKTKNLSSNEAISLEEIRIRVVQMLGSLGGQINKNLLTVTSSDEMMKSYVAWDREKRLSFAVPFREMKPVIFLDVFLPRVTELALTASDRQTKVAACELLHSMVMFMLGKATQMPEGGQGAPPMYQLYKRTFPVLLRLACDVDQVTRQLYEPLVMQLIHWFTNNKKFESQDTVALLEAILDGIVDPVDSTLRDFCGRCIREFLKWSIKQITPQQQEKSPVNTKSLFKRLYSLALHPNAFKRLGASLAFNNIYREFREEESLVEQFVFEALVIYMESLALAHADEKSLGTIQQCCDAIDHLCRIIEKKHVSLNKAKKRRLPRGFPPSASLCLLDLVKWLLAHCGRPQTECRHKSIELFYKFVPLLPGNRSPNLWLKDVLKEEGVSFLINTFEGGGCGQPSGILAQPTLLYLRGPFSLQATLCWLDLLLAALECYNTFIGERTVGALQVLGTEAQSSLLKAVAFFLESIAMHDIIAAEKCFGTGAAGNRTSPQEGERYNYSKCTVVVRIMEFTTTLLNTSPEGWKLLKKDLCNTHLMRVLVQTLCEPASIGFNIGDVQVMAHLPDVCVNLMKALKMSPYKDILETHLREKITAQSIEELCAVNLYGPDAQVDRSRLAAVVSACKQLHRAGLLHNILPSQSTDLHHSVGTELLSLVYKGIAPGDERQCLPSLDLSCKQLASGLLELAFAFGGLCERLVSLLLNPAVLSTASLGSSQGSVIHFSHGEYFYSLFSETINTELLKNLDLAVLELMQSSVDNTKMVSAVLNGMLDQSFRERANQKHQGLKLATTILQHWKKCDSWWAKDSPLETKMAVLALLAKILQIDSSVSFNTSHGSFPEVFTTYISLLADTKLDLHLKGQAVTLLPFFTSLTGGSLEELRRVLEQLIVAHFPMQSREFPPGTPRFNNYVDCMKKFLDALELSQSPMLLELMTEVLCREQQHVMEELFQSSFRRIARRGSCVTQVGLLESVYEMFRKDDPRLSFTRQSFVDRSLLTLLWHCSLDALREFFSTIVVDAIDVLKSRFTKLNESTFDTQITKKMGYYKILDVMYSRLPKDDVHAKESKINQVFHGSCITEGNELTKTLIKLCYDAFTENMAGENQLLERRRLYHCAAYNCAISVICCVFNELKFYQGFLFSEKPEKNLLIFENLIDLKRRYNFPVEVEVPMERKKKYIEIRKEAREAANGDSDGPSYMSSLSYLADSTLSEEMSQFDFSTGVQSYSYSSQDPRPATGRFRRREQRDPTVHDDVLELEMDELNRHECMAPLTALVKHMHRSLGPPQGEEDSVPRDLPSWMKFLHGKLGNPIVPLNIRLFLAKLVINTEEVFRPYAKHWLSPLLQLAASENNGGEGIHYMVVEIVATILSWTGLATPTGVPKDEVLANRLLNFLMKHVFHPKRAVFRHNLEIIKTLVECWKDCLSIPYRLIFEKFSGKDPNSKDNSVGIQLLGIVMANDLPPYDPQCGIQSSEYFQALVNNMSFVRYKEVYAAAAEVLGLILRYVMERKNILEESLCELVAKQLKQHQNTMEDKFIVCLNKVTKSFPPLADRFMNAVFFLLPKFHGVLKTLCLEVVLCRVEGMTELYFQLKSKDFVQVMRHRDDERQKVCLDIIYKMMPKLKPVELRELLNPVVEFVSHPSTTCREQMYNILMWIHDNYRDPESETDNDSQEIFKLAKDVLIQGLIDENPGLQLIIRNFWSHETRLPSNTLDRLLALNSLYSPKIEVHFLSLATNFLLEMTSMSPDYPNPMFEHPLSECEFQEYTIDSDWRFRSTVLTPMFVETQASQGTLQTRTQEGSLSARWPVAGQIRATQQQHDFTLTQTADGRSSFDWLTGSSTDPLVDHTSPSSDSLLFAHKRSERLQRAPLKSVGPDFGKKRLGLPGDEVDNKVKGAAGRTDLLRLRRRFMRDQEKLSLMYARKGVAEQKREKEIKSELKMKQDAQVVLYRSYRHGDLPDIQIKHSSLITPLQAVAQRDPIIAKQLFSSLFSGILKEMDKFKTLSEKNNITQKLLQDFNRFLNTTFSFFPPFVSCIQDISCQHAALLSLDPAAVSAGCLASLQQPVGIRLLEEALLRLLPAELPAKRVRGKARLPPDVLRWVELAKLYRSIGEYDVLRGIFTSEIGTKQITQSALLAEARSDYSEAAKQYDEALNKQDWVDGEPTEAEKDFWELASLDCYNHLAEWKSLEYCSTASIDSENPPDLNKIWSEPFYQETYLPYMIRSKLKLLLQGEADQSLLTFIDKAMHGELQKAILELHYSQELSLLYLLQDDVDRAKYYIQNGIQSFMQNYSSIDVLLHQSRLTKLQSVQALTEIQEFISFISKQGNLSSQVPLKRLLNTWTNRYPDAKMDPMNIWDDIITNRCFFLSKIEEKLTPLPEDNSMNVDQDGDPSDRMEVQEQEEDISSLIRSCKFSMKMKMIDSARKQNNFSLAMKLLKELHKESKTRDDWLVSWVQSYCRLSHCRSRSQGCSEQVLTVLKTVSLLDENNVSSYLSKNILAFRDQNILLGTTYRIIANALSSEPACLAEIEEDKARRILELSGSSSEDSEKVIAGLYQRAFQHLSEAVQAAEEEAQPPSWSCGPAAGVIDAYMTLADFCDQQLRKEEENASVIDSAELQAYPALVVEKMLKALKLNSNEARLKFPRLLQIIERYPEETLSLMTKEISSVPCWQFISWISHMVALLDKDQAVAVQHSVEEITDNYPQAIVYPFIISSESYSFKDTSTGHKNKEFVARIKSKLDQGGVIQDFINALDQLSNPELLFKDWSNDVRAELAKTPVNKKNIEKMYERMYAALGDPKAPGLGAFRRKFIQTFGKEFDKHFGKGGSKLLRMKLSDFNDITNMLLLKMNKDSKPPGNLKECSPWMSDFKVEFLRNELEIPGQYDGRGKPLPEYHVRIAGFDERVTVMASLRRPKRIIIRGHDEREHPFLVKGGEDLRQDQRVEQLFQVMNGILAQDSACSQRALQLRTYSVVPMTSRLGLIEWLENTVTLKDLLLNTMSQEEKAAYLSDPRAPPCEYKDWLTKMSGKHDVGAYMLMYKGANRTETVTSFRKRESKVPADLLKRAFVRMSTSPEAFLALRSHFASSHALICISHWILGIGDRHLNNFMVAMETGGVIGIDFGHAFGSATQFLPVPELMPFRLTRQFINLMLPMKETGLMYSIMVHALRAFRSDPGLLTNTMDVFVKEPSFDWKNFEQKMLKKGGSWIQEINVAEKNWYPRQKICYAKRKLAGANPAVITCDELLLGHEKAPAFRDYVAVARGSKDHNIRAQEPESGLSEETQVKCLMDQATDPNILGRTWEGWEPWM

B1: scFv 18-2 (scFv, V domains shown)
VH: QVKLQESGAELVKPGASVKLSCKAFDYTFTTYDINWIKQRPGQGLWIGWIYPGSGNNKYNEKFKGKATLTADKSSRAAYMHLSSLTSEDSAVYFCAGGPLNMTGFDYWGQGTTVTVSS
VL: DIELTQSPSSMYASLGERVTITCKASQDINSYLSWFQQKPGKSPKTLIYRANRLVDGVPSRFSGSGSGQDYSLTISSLEYEDMGIYYCLQYDELPLTFGAGTKLEIK
B1 showed a decrease in p53 peptide phosphorylation activity [1] of 50% and a Kd [2] of 1.4 nM.
